According to patent publication US20160347841A1 (UNIVERSIDAD NACIONAL AUT NOMA DE M XICO, published 2016):

Target: T1, DEC-205 receptor of dog spleen cells (dog, UniProt A0A8I3Q134 28-1723)
T1 construct: whole, on cells; It only reports that no 205 kDa band was isolated
Experiment: immunoprecipitation from spleen white cell lysate, SDS-PAGE
Procedure: For this purpose Jurkat cells (the cell line of human T lymphocytes) as well as white cells obtained from the spleens of different animals (pigs and dogs) were lysed in an immunoprecipitation buffer (PBS pH 7.4, 1% Triton X-100 with protease inhibitor). […] Then, 50 μL of A-Sepharose protein (Pierce, Rockford, Ill., USA) was used for immunoprecipitation, with incubation being done for one hour at ambient temperature. The immune complexes that were formed were washed extensively. The immunoprecipitates were eluted by boiling for five minutes in a sample buffer with SDS. These precipitates were analyzed on a 10% SDS-PAGE gel under reducing conditions using molecular weight markers. […] The molecular weights are indicated.

T1 sequence (A0A8I3Q134 entry or part of it): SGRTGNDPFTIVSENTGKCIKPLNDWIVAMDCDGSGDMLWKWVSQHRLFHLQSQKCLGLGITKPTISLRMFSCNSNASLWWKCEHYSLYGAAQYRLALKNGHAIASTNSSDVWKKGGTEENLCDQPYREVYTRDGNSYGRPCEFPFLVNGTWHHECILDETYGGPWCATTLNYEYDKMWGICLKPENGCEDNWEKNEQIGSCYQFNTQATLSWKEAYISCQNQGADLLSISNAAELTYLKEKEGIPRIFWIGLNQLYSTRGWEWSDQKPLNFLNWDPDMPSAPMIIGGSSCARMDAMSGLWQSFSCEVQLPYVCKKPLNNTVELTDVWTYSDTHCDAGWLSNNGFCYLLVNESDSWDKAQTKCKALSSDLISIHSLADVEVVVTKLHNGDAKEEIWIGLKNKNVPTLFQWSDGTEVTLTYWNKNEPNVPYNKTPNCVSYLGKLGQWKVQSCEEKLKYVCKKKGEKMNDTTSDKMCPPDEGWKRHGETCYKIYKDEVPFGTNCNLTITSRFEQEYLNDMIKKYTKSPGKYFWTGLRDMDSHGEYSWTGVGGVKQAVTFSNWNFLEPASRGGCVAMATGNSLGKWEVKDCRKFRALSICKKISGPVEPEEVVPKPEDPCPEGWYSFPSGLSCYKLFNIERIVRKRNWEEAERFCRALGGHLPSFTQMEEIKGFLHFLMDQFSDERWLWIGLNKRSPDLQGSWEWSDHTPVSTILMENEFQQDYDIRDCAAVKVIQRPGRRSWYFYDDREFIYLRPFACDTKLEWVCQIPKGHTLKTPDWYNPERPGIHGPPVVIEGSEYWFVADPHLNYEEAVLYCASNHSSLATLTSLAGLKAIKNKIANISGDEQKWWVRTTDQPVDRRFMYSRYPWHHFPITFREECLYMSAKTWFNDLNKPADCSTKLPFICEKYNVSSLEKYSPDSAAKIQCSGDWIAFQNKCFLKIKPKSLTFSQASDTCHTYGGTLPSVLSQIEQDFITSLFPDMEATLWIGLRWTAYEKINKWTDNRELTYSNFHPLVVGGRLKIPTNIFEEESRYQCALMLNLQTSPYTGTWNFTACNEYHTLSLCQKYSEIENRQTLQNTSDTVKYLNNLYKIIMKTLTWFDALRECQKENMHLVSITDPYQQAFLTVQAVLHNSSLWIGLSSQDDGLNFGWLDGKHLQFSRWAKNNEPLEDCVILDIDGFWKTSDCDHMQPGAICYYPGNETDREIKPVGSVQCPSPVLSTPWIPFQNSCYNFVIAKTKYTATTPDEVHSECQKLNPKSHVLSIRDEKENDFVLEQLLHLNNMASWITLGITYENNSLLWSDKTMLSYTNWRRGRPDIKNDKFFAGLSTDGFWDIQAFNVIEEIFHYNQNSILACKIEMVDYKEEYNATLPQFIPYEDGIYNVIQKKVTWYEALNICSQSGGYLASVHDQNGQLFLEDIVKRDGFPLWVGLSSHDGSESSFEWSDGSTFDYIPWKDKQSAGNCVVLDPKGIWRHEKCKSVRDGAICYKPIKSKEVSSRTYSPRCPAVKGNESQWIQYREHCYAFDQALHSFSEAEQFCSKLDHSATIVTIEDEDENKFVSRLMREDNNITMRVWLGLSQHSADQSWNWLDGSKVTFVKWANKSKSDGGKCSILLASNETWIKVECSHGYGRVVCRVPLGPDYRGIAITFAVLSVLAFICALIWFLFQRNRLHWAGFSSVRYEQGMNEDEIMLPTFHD

B1: murine monoclonal antibody 2F2E8E3B6 anti-CTLD-2 (antibody, IgG2a, V domains shown)
VH: EVQLQQSTAEFVKPGASVKLSCTASGFNIKDTYIHWVKQRPEQGLEWIGRIDPANGNTRYDPKFQGKATMTADTSSNTAYLQLSSLTSEDTAVYYCARYDVTYWGQGTLVTVS
VL: DIVMSQSPSSLAVSAGERVTMSCKSSQSLLNSRTRKNYLAWYQQKPGQSPKLLIYWASTRESGVPDRFTGSGSGTDFTLTISSVRAEDLAVYYCKQSYNLYTFGRGTKLEIK
notes: also called 2F2E8D3B6; AbM 2F2E8E3B6
Question: Does B1 bind?
Answer: Result: no binding
